Test results reported in patent US20150344570A1 (published 2015).

T1: FcγRIIb extracellular domain with C-terminal His tag (human, UniProt P31994 43-217)
T1 construct: extracellular domain; also called 2b; FcgRIIb
T1 sequence (looked up): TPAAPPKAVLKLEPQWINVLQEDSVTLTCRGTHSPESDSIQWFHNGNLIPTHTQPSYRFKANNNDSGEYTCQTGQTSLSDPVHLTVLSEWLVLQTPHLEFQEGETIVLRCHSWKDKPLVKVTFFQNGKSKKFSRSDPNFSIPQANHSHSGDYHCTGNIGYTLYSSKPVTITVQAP

T2: FcγRIIa H (FcgRIIa type H, His at position 131), extracellular domain with C-terminal His tag (human, UniProt P12318 34-217)
T2 construct: extracellular domain; also called 2aH; FcgRIIa H; not shown: His tag at the C terminus
T2 sequence (looked up): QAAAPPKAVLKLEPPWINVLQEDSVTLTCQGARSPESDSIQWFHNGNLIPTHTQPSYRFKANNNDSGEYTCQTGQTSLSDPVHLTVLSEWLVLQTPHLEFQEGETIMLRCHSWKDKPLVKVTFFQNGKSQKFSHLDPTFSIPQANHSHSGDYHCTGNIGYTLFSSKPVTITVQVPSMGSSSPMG

T3: FcγRIIb, extracellular domain with C-terminal His tag (human, UniProt P31994 43-217)
T3 construct: extracellular domain; also called 2b; FcgRIIb; not shown: His tag at the C terminus
T3 sequence (looked up): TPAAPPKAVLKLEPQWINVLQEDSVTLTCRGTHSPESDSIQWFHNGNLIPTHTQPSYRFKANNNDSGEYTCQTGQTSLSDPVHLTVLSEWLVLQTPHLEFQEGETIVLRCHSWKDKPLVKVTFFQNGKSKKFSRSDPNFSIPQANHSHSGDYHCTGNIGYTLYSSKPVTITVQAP


Columns and labels:
[1] = biological target: T4, FcγRIIIa extracellular domain with C-terminal His tag (human, UniProt P08637 17-208); assay: SPR, binding relative to GpH7-A5/GpH7-B3/GpL16-k0 = 100
T4 construct: extracellular domain; also called 3a; FcgRIIIa
T4 sequence (P08637 17-208): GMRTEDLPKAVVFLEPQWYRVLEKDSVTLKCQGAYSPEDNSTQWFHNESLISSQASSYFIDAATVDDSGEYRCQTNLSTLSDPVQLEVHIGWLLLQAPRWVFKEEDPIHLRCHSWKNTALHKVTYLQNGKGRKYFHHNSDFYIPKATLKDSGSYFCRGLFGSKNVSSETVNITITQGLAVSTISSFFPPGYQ

[2] = biological target: T1, FcγRIIb extracellular domain with …; assay: as above
[3] = biological target: T2, FcγRIIa H (FcgRIIa type H, His at …); assay: SPR (Biacore), relative binding, GpH7-A5/GpH7-B3/GpL16-k0 = 100
[4] = biological target: T3, FcγRIIb, extracellular domain with …; assay: as above

Row | He/Con_3a [1] | He/Con_2b [2] | He/Con_2aH [3] | He/Con_2b [4] | Binder
1 | 105 % of control | 99.9 % of control | – | – | GpH7-A5/GpH7-B3 variant T335_05P/GpL16-k0 (antibody, human IgG1, kappa, also called He Ab) heavy 1: not shown heavy 2: not shown light: DIVMTQSPLSLPVTPGEPASISCQASESLVHSNRNTYLHWYLQKPGQSPQLLIYKVSNRFSGVPDRFSGSGSGTDFTLKISRVEAEDVGVYYCSQNTHVPPTFGQGTKVEIERTVAAPSVFIFPPSDEQLKSGTASVVCLLNNFYPREAKVQWKVDNALQSGNSQESVTEQDSKDSTYSLSSTLTLSKADYEKHKVYACEVTHQGLSSPVTKSFNRGEC
2 | 102 % of control | 92 % of control | – | – | GpH7-A5/GpH7-B3 variant S337_01G/GpL16-k0 (antibody, human IgG1, kappa, also called He Ab) heavy 1: not shown heavy 2: not shown light: DIVMTQSPLSLPVTPGEPASISCQASESLVHSNRNTYLHWYLQKPGQSPQLLIYKVSNRFSGVPDRFSGSGSGTDFTLKISRVEAEDVGVYYCSQNTHVPPTFGQGTKVEIERTVAAPSVFIFPPSDEQLKSGTASVVCLLNNFYPREAKVQWKVDNALQSGNSQESVTEQDSKDSTYSLSSTLTLSKADYEKHKVYACEVTHQGLSSPVTKSFNRGEC
3 | 101 % of control | 97.8 % of control | – | – | GpH7-A5/GpH7-B3 variant S337_04F/GpL16-k0 (antibody, human IgG1, kappa, also called He Ab) heavy 1: not shown heavy 2: not shown light: DIVMTQSPLSLPVTPGEPASISCQASESLVHSNRNTYLHWYLQKPGQSPQLLIYKVSNRFSGVPDRFSGSGSGTDFTLKISRVEAEDVGVYYCSQNTHVPPTFGQGTKVEIERTVAAPSVFIFPPSDEQLKSGTASVVCLLNNFYPREAKVQWKVDNALQSGNSQESVTEQDSKDSTYSLSSTLTLSKADYEKHKVYACEVTHQGLSSPVTKSFNRGEC
4 | 102 % of control | 99.4 % of control | – | – | GpH7-A5/GpH7-B3 variant T335_06M/GpL16-k0 (antibody, human IgG1, kappa, also called He Ab) heavy 1: not shown heavy 2: not shown light: DIVMTQSPLSLPVTPGEPASISCQASESLVHSNRNTYLHWYLQKPGQSPQLLIYKVSNRFSGVPDRFSGSGSGTDFTLKISRVEAEDVGVYYCSQNTHVPPTFGQGTKVEIERTVAAPSVFIFPPSDEQLKSGTASVVCLLNNFYPREAKVQWKVDNALQSGNSQESVTEQDSKDSTYSLSSTLTLSKADYEKHKVYACEVTHQGLSSPVTKSFNRGEC

More lines, now with the values behind:

Row | Binder | He/Con_3a [1] | He/Con_2b [2] | He/Con_2aH [3] | He/Con_2b [4]
5 | GpH7-A5/GpH7-B3 variant S324_16H/GpL16-k0 (antibody, human IgG1, kappa, also called He Ab) heavy 1: not shown heavy 2: not shown light: DIVMTQSPLSLPVTPGEPASISCQASESLVHSNRNTYLHWYLQKPGQSPQLLIYKVSNRFSGVPDRFSGSGSGTDFTLKISRVEAEDVGVYYCSQNTHVPPTFGQGTKVEIERTVAAPSVFIFPPSDEQLKSGTASVVCLLNNFYPREAKVQWKVDNALQSGNSQESVTEQDSKDSTYSLSSTLTLSKADYEKHKVYACEVTHQGLSSPVTKSFNRGEC | 104 % of control | 83.5 % of control | – | –
6 | GpH7-A5/GpH7-B3 variant A327_10E/GpL16-k0 (antibody, human IgG1, kappa, He Ab; alteration in one H chain only; also called He Ab) heavy 1: not shown heavy 2: not shown light: DIVMTQSPLSLPVTPGEPASISCQASESLVHSNRNTYLHWYLQKPGQSPQLLIYKVSNRFSGVPDRFSGSGSGTDFTLKISRVEAEDVGVYYCSQNTHVPPTFGQGTKVEIERTVAAPSVFIFPPSDEQLKSGTASVVCLLNNFYPREAKVQWKVDNALQSGNSQESVTEQDSKDSTYSLSSTLTLSKADYEKHKVYACEVTHQGLSSPVTKSFNRGEC | – | – | 91.3 % of control | 140 % of control
7 | GpH7-A5/GpH7-B3 variant A327_01G/GpL16-k0 (antibody, human IgG1, kappa, He Ab; alteration in one H chain only; also called He Ab) heavy 1: not shown heavy 2: not shown light: DIVMTQSPLSLPVTPGEPASISCQASESLVHSNRNTYLHWYLQKPGQSPQLLIYKVSNRFSGVPDRFSGSGSGTDFTLKISRVEAEDVGVYYCSQNTHVPPTFGQGTKVEIERTVAAPSVFIFPPSDEQLKSGTASVVCLLNNFYPREAKVQWKVDNALQSGNSQESVTEQDSKDSTYSLSSTLTLSKADYEKHKVYACEVTHQGLSSPVTKSFNRGEC | – | – | 97.2 % of control | 116 % of control
8 | GpH7-A5/GpH7-B3 variant K326_16H/GpL16-k0 (antibody, human IgG1, kappa, He Ab; alteration in one H chain only; also called He Ab) heavy 1: not shown heavy 2: not shown light: DIVMTQSPLSLPVTPGEPASISCQASESLVHSNRNTYLHWYLQKPGQSPQLLIYKVSNRFSGVPDRFSGSGSGTDFTLKISRVEAEDVGVYYCSQNTHVPPTFGQGTKVEIERTVAAPSVFIFPPSDEQLKSGTASVVCLLNNFYPREAKVQWKVDNALQSGNSQESVTEQDSKDSTYSLSSTLTLSKADYEKHKVYACEVTHQGLSSPVTKSFNRGEC | – | – | 97.9 % of control | 119 % of control
9 | GpH7-A5/GpH7-B3 variant K326_20W/GpL16-k0 (antibody, human IgG1, kappa, He Ab; alteration in one H chain only; also called He Ab) heavy 1: not shown heavy 2: not shown light: DIVMTQSPLSLPVTPGEPASISCQASESLVHSNRNTYLHWYLQKPGQSPQLLIYKVSNRFSGVPDRFSGSGSGTDFTLKISRVEAEDVGVYYCSQNTHVPPTFGQGTKVEIERTVAAPSVFIFPPSDEQLKSGTASVVCLLNNFYPREAKVQWKVDNALQSGNSQESVTEQDSKDSTYSLSSTLTLSKADYEKHKVYACEVTHQGLSSPVTKSFNRGEC | – | – | 83.3 % of control | 148 % of control
